Experimental data as given in patent US20260053961A1, “HETERODIMER AND RADIOACTIVE MEDICAL USE THEREOF” (HEXIN (SUZHOU) PHARMACEUTICAL TECHNOLOGY CO., LTD., priority 2022, published 2026).

Columns and labels:
[1] = PET/CT imaging of ^68Ga complexes in small animals; assay type: in vivo, NCr nude mice; settings: NCr nude, mouse, in vivo, iv, 100 uCi, total radioactivity
Protocol: (§1) BxPC3 human pancreatic cancer cells are suspended in a mixture of 200 μL phosphate buffer and matrix gel (v/v, 1/1), and 2×10^6 cells were implanted subcutaneously into left shoulders of normal NCr nude mice (18-25 g, 4-6 weeks old). After an average of 1.5 weeks, a tumor diameter reached about 10 mm, which was sufficient for biodistribution and single-photon emission computed tomography-computed tomography (SPECT/CT) imaging studies.
(§2) PET-CT and image analysis were performed using a small-animal NovelMedcal PET-CT scanner (Beijing Yongxin). Maximum tangential and radial half-widths of the scanner in a center of field of view were 1.5 mm, and at an edge of the field of view were 1.8 mm.
(§3) About 100 μCi of each of the following complexes: ^68Ga-L00, ^68Ga-L11, ^68Ga-L12, ^68Ga-L13, and ^68Ga-L21, was injected into BxPC3 tumor-bearing mice via tail vein under isoflurane anesthesia, and each of the complexes was injected into four mice. Static PET-CT images were obtained for 15 min 0.5, 1, 2, 3, 4, 5 and 6 hours after intravenous injection. Distribution patterns of the five complexes at each time point were compared.
(§4) PET and CT images were acquired using NMSoft workstation software (Beijing Yongxin), and data were given as a percentage of injected dose per gram of tissue or organ (ID/g), and were determined through decay correction for each sample (standardized to a known weight of the injected dose. Normalization was performed during statistical analysis, and standardized uptake values (SUVs) were calculated according to the following formula: […]

BxPC3 tumor-bearing mice = assay: PET/CT imaging of ^68Ga complexes in small animals; assay type: in vivo, NCr nude mice
Protocol: as §1, §2, §3, §4

[2] = Stability study: in vitro incubation at constant temperature (37° C.) in murine plasma, LC-MS/MS; assay type: in vitro ADME
Protocol: (§5) The experiment was carried out by using an in vitro incubation method at a constant temperature (37° C.) to study the stability of the compound ([…]) from Example L11 in murine plasma or PBS. The compound obtained from Example L11 was dissolved in 1 mL of mouse serum, respectively, and incubated in vitro at a constant temperature for 0 h, 0.5 h, 1 h, 4 h, 24 h, and 48 h, and a percentage of drug remaining was then measured and determined. PBS was used as a negative control group. Peak areas of the drug and an internal standard were measured using an LC-MS/MS method, and ratios of the peaks were used instead of the drug concentration for calculation.

[3] = Stability study: in vitro incubation at constant temperature (37° C.) in PBS, LC-MS/MS; assay type: physicochemical
Protocol: as §5

Compound: C[C@@H](O)[C@@H]1NC(=O)[C@H](CCCNC(=N)N)NC(=O)CNC(=O)[C@H](CC(N)=O)NC(=O)[C@H](Cc2ccc(O)cc2)NC(=O)[C@H](CCCCNC(=O)CCOCCOCCOCCOCCNC(=O)OCC2C3CCc4nnn(CCC(C(=O)N[C@@H](CCCCNC(=O)CCC(=O)N[C@@H](CCCCN)C(=O)O)C(=O)NCCOCCOCCOCCOCCC(=O)NCCCC[C@@H]5NC(=O)[C@@H](Cc6ccccc6)NC(=O)[C@H](CC(=O)O)NC(=O)CNC(=O)[C@H](CCCNC(=N)N)NC5=O)N5CCN(CC(=O)O)CCN(CC(=O)O)CCN(CC(=O)O)CC5)c4CCC32)NC1=O (stereo partly shown) [^68Ga-L00, metal not drawn]
- tissue to tissue ratio at 2 h [1]: ~0.18
- clearance of the drug (BxPC3 tumor-bearing mice; mouse, in vivo): rapidly metabolized through the kidneys
- signals in the tumor tissue over time (BxPC3 tumor-bearing mice; mouse, in vivo, iv): gradually weakened

Compound: C[C@@H](O)[C@@H]1NC(=O)[C@H](CCCNC(=N)N)NC(=O)CNC(=O)[C@H](CC(N)=O)NC(=O)[C@H](Cc2ccc(O)cc2)NC(=O)[C@H](CCCCNC(=O)CCOCCOCCOCCOCCNC(=O)OCC2C3CCc4nnn(CCC(C(=O)N[C@@H](CCCCNC(=O)CCC(=O)N[C@@H](CCCCNC(=O)CCCc5ccc(C(F)(F)F)cc5)C(=O)O)C(=O)NCCOCCOCCOCCOCCC(=O)NCCCC[C@@H]5NC(=O)[C@@H](Cc6ccccc6)NC(=O)[C@H](CC(=O)O)NC(=O)CNC(=O)[C@H](CCCNC(=N)N)NC5=O)N5CCN(CC(=O)O)CCN(CC(=O)O)CCN(CC(=O)O)CC5)c4CCC32)NC1=O (single isomer, unassigned) [^68Ga-L11, metal not drawn]
- tissue to tissue ratio at 6 h ([1]; about 6 hours after the injection, PET/CT, read-out: tumor-to-kidney ratio): ~1.4
- tumor-to-kidney ratio, rank among the five complexes (BxPC3 tumor-bearing mice; MIP images and ROI regions): highest among the five conjugates
- tumor-to-muscle ratio, rank among the five complexes (BxPC3 tumor-bearing mice; MIP images and ROI regions): highest among the five conjugates

Compound: C[C@@H](O)[C@@H]1NC(=O)[C@H](CCCNC(=N)N)NC(=O)CNC(=O)[C@H](CC(N)=O)NC(=O)[C@H](Cc2ccc(O)cc2)NC(=O)[C@H](CCCCNC(=O)CCOCCOCCOCCOCCNC(=O)OCC2C3CCc4nnn(CCC(C(=O)N[C@@H](CCCCNC(=O)CCC(=O)N[C@@H](CCCCNC(=O)CCCc5ccc(C(F)(F)F)cc5)C(=O)O)C(=O)NCCOCCOCCOCCOCCC(=O)NCCCC[C@@H]5NC(=O)[C@@H](Cc6ccccc6)NC(=O)[C@H](CC(=O)O)NC(=O)CNC(=O)[C@H](CCCNC(=N)N)NC5=O)N5CCN(CC(=O)O)CCN(CC(=O)O)CCN(CC(=O)O)CC5)c4CCC32)NC1=O (single isomer, unassigned) [Example L11, RGD-PEG4-Lys (—R—R1)-DOTA-click-PEG4-NGR]
- remaining at 0.5 h, 1 g/mL ([2]; mouse, mouse plasma, murine plasma, 37° C., 0.5 h, read-out: Percentage of drug remaining): 98.5%
- remaining at 1 h, 1 g/mL ([2]; mouse, mouse plasma, murine plasma, 37° C., 1 h, read-out: Percentage of drug remaining): 98.4%
- remaining at 4 h, 1 g/mL ([2]; mouse, mouse plasma, murine plasma, 37° C., 4 h, read-out: Percentage of drug remaining): 98%
- remaining at 24 h, 1 g/mL ([2]; mouse, mouse plasma, murine plasma, 37° C., 24 h, read-out: Percentage of drug remaining): 93.4%
- remaining at 48 h, 1 g/mL ([2]; mouse, mouse plasma, murine plasma, 37° C., 48 h, read-out: Percentage of drug remaining): 86.5%
- Percentage of drug remaining (summary statement) ([2]; murine plasma or PBS, in vitro incubation at constant temperature, over the study): above 95%
- Percentage of drug remaining ([2]; murine plasma, 37° C., 0 h): 100%
- Percentage of drug remaining ([3]; 0 h): 100%
- remaining at 0.5 h, 1 g/mL ([3]; 0.5 h, read-out: Percentage of drug remaining): 99.3%
- remaining at 1 h, 1 g/mL ([3]; 1 h, read-out: Percentage of drug remaining): 98.7%
- remaining at 4 h, 1 g/mL ([3]; 4 h, read-out: Percentage of drug remaining): 98.6%
- remaining at 24 h, 1 g/mL ([3]; 24 h, read-out: Percentage of drug remaining): 98.3%
- remaining at 48 h, 1 g/mL ([3]; 48 h, read-out: Percentage of drug remaining): 97.9%
